Ends that are not written are not given here.
T1: Lewis rat MHC class II molecule, RT1.B^L (rat (Lewis), UniProt P20037 24-256; P29826 28-263)
T1 sequence (looked up) 1: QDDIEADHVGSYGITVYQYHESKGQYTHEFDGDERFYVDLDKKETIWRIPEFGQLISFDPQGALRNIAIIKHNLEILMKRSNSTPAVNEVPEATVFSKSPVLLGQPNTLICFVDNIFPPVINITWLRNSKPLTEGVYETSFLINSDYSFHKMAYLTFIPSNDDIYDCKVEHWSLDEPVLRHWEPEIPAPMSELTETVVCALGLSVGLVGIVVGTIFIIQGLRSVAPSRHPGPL
T1 sequence (looked up) 2: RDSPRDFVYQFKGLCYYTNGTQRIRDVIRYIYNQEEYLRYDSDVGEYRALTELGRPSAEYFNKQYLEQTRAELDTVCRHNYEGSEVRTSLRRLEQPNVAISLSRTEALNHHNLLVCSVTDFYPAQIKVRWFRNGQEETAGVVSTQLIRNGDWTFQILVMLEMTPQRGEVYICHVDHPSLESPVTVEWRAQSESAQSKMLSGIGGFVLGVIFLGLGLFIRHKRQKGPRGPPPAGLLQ


What was measured:
[1] = test system: polyclonal lymph node cell population; settings: ref [9] (also Fig. 3); cited from earlier work
[2] = test system: MMP peptide-specific T cells; assay: Delayed-type hypersensitivity; settings: control ovalbumin peptide
[3] = biological target: T1, Lewis rat MHC class II molecule, RT1.B^L; assay: competitive MHC class II-peptide binding assay

Row | IC50 [3] | Molecule | other results
1 | – | SNTFGLQLE [hsp65_178–186] | proliferative response to mycobacterial hsp65 178–186 [1]: very low
2 | – | ISQAVHAAHAEINEAGR [OVA323–339] | DTH reaction (in words), control peptide [2]: no DTH reaction was observed
3 | 64 to 128 µM | VKEGHSPPDDVDIVI-NH2 [Human MMP-16_(539-553) peptide] | –
4 | 128 to 256 µM | SAFWPSLPSGLDAAY-NH2 [Rat MMP-10_(329-343) peptide] | –
5 | ≤ 8 µM | FLYFFSGSSQLEFDP-NH2 [Rat MMP-3_(444-458) peptide] | –

Reference: publication PMC125294 (Arthritis Research, 2002)
